Data on four molecules can be found in patent publication US6468762B1, “High specificity homocysteinases” (AntiCancer, Inc., priority 1997, dated 2002).

Series [1] deals with CSCC[C@H](N)C(=O)O. The series can be described thus: Km of the novel homocysteinase expressed from the pAC2-1 clone (α-ketobutyrate/pyruvate assay, MBTH). In kind it is biochemical, Trichomonas vaginalis. Particulars: other: 37° C., pH 8.0, 100 mM phosphate buffer, 10 μM pyridoxal phosphate, 10 minutes, DL-homocysteine, L-cysteine or L-methionine separately, 10 μM to 1.6 mM. The text has this: (§1) In FIG. 1 (panels A and B) are depicted the amino acid sequences of two Trichomonas vaginalis homocysteinases, the first derived from a novel clone (pAC2-1) of the present invention, and the second, the enzyme derived from the known mgl1 gene (see also SEQ ID NOS: 10 and 12 for comparison of amino acids; SEQ ID NOS: 9 and 11 for comparison of encoding DNA's). It will be seen that pAC2-1 is characterized by the existence of three differences (mutations), compared to mgl1:
(§2) Phe to Leu at amino acid position 47,
(§3) Asp to Glu at amino acid position 172, and
(§4) Ser to Tyr at amino acid position 308.
(§5) In the first step of this assay, 1 ml volumes of 100 mM phosphate buffer pH 8.0, containing also 10 μM pyridoxal phosphate, […], respectively, were incubated, for 10 min at 37° C., with a sufficient sample (typically 50 μl) of crude cell extract (cells were sonicated, and the supernatant was recovered following centrifugation) to provide about 1-100 units of homocysteinase (“HCYase”) enzyme. The reactions were stopped by adding 0.1 ml of 50% TCA. The suspensions were then centrifuged using an Eppendorf centrifuge at 13 k rpm for 2 minutes. 0.5 ml samples of the supernatants were then added to 0.5 ml of 0.05% 3-methyl-2-benzothiazolinone hydrazone (“MBTH”) in 0.8 ml of 1M sodium acetate, pH 5.2 and incubated at 50° C. for 30 min. The amount of reaction products was determined for each sample, by spectrophotometry at OD320. The amount of protein was determined with a Bio-Rad 500-0006 kit (Bio-Rad, Richmond, Calif.) with bovine serum albumin as a standard. The enzyme specific activity was calculated as units/mg protein, with one unit of enzyme defined as the amount that catalyzes the formation of 1 μmol of α-ketobutyrate from homocysteine per minute. […]
(§6) The reaction was stopped by adding 0.1 ml of 50% TCA. […] The amount of reaction product was then determined by spectrophotometry at OD320. The Kcat (turnover number) values reported in FIG. 5, were determined from the calculation of Vmax values using standard kinetic expressions and plots.

Series [2] has as its system N[C@@H](CCS)C(=O)O. Described as above. The format is biochemical, Trichomonas vaginalis. Particulars: other: 37° C., pH 8.0, 100 mM phosphate buffer, 10 μM pyridoxal phosphate, 10 minutes, DL-homocysteine, L-cysteine or L-methionine separately, 10 μM to 1.6 mM.
Text: as §1, §2, §3, §4, §5, §6

Series [3] deals with N[C@@H](CS)C(=O)O. Described as above. The format is biochemical, Trichomonas vaginalis. To be noted: other: 37° C., pH 8.0, 100 mM phosphate buffer, 10 μM pyridoxal phosphate, 10 minutes, DL-homocysteine, L-cysteine or L-methionine separately, 10 μM to 1.6 mM.
Text: as §1, §2, §3, §4, §5, §6

The conditions of series [4]: from the relative activity scale. The text has this: Homocysteinase enzymes of suitable catalytic activity for use as starting materials to obtain mutated forms can be derived from other Pseudomonas species, or from other bacteria, using routine screening procedures and assays that are recognized in the art.
The subject of series [5] is Trichomonas vaginalis homocysteinase, isolated native enzyme (may reflect expression from more than one gene). To be noted: native enzyme isolated from T. vaginalis; Lockwood et al., 1991; cited from earlier work.
The nature of series [6]: Homocysteinase specific activity, α-ketobutyrate assay. The format is biochemical. The protocol: In the first step of this assay, 1 ml volumes of 100 mM phosphate buffer pH 8.0, containing also 10 μM pyridoxal phosphate, and different concentrations (25 μM-25 mM) of DL-homocysteine, or L-methionine, L-cysteine, respectively, were incubated, for 10 min at 37° C., with a sufficient sample (typically 50 μl) of crude cell extract (cells were sonicated, and the supernatant was recovered following centrifugation) to provide about 1-100 units of homocysteinase (“HCYase”) enzyme. The reactions were stopped by adding 0.1 ml of 50% TCA. The suspensions were then centrifuged using an Eppendorf centrifuge at 13 k rpm for 2 minutes. 0.5 ml samples of the supernatants were then added to 0.5 ml of 0.05% 3-methyl-2-benzothiazolinone hydrazone (“MBTH”) in 0.8 ml of 1M sodium acetate, pH 5.2 and incubated at 50° C. for 30 min. The amount of reaction products was determined for each sample, by spectrophotometry at OD320. The amount of protein was determined with a Bio-Rad 500-0006 kit (Bio-Rad, Richmond, Calif.) with bovine serum albumin as a standard. The enzyme specific activity was calculated as units/mg protein, with one unit of enzyme defined as the amount that catalyzes the formation of 1 μmol of α-ketobutyrate from homocysteine per minute. The assay procedure can, of course, also be used with purified homocysteinase samples that provide, for example, 1-100 units of enzyme per assay test.
Alternatively, an additional two stage strategy may be used. In the first stage, the partitioning material was DEAE Sepharose® FF, and loading and pre-washing were conducted with 20 mM sodium phosphate buffer, pH 7.2. Elution of the protein was accomplished using a linear gradient (8 ml/min) from 20 mM sodium phosphate buffer, pH 7.2 (solution A) to 20 mM sodium phosphate buffer, pH 7.2, 500 mM NaCl (solution B). In the second stage, the partitioning material was phenyl Sepharose® 6-FF, and loading and pre-washing were conducted with 0.6 M NH4SO4 in 20 mM sodium phosphate buffer, pH 7.2. Elution of the protein was accomplished using a linear gradient (5 ml/min) from 0.6 M NH4SO4, 20 mM sodium phosphate buffer, pH 7.2 (solution A) to 20 mM sodium phosphate buffer, pH 7.2, (solution B). The following purification results were obtained for this alternate procedure. The above-described cell-lysate contained 8400 units of homocysteinase at a specific activity (units/mg) of 5.2. Following completion of pre-column procedures, 6,300 units were recovered at a specific activity of 64 (about 75% yield). Upon completion of the DEAE Sepharose®-FF step (first column), 5,040 units were recovered at a specific activity of 172 (60% yield), while after the phenyl Sepharose® 6-FF step (second column), 4,200 units remained at a specific activity of 300 (50% yield).
An activity assay for the keto product of the α, γ or α,β-elimination (α-keto butryate for homocysteine) was carried out in a 1.5 ml Eppindorf tube using 1-ml. of 50 mM phosphate buffer pH 8.0 (also containing 10 μM pyridoxal phosphate and 20 mM homocysteine) for 10 minutes at 37° C., with varying amounts of enzyme. The reaction was stopped by adding 0.5 ml of 4.5% TCA. […]
The amount of reaction product was determined by spectrophotometry at OD335. […] The amount of protein was determined with the Lowry Reagent Kit (Sigma) with bovine serum albumin as a standard. The specific activity was calculated as units/mg protein, with one unit of enzyme defined as the amount that catalyzed the formation of 1 μmol of α-ketobutyrate/minute.

Series [7] can be described thus: Relative activity toward homocysteine versus cysteine or methionine. In kind it is biochemical. Particulars: apparent activity. The protocol: In the first step of this assay, 1 ml volumes of 100 mM phosphate buffer pH 8.0, containing also 10 μM pyridoxal phosphate, and different concentrations (25 μM-25 mM) of DL-homocysteine, or L-methionine, L-cysteine, respectively, were incubated, for 10 min at 37° C., with a sufficient sample (typically 50 μl) of crude cell extract (cells were sonicated, and the supernatant was recovered following centrifugation) to provide about 1-100 units of homocysteinase (“HCYase”) enzyme. The reactions were stopped by adding 0.1 ml of 50% TCA. The suspensions were then centrifuged using an Eppendorf centrifuge at 13 k rpm for 2 minutes. 0.5 ml samples of the supernatants were then added to 0.5 ml of 0.05% 3-methyl-2-benzothiazolinone hydrazone (“MBTH”) in 0.8 ml of 1M sodium acetate, pH 5.2 and incubated at 50° C. for 30 min. The amount of reaction products was determined for each sample, by spectrophotometry at OD320. The amount of protein was determined with a Bio-Rad 500-0006 kit (Bio-Rad, Richmond, Calif.) with bovine serum albumin as a standard. The enzyme specific activity was calculated as units/mg protein, with one unit of enzyme defined as the amount that catalyzes the formation of 1 μmol of α-ketobutyrate from homocysteine per minute. The assay procedure can, of course, also be used with purified homocysteinase samples that provide, for example, 1-100 units of enzyme per assay test. […]

Series [8] in a line: Single enzyme assay detecting product hydrogen sulfide: contribution of homocysteine versus cysteine. The format is biochemical. An excerpt:
According to the preferred practice of the invention, homocysteinases are provided wherein the relative activities of said enzymes toward homocysteine versus cysteine are such that, by detecting product hydrogen sulfide, the apparent concentration of homocysteine measured in a patient sample (which reflects also a contribution from cysteine) is less that about 150%, preferably less than about 110%, and most preferably less than about 102%, of the actual value thereof. In a further preferred example of the invention, for example using the novel Trichomonas homocysteinase expressed from pAC2-1, the apparent concentration of homocysteine measured in a single enzyme assay reflects no more than about a 1% false contribution from cysteine.
In general, useful diagnostic information can be obtained when the amount of produced hydrogen sulfide attributable to homocysteine is about one half of the total. […] Preferably, however the fraction of total hydrogen sulfide detected in an assay that is attributable to homocysteine is at least 90%, preferably 95%, more preferably 98%, and most preferably 99% or greater. The 99% level is readily obtained according to the practice of the invention, for example using the homocysteinase represented by SEQ ID NO: 10. […]

In general, Km refers to the concentration of substrate that gives half-maximal velocity.

On to “Trichomonas vaginalis homocysteinase, pAC2-1 clone (recombinant in E. coli BL21 (DE3)), SEQ ID NO: 10; versus mgl1 (SEQ ID NO: 12): Phe47 to Leu, Asp172 to Glu, Ser308 to Tyr; N-terminal 6x His (Trichomonas vaginalis; D172E/F47L/S308Y)”, for which the figures for the Km in series [1], in series [2] and in series [3] were 3.1 mM, 4.8 mM and 3.45 mM, respectively.

Take “L-methionine-alpha-deamino-gamma-mercaptomethane lyase [P. putida enzyme]”: the “apparent preference for homocysteine over cysteine” value in series [4] is given as about 10 fold.

For `N[C@@H](CCS)C(=O)O` (racemic) [homocysteine], in series [5], the Km was about 0.5 mM.

B1: SEQ ID NO: 10: recombinant Trichomonas vaginalis homocysteinase from E. coli clone pAC2-1 (ATCC 98549), with 6 N-terminal histidine residues (protein)
chain: MHHHHHHMSHERMTPATACIHANPQKDQFGAAIPPIYQTSTFVFDNCQQGGNRLAGQESGYIYTRLGNPTVSNLEGKIAFLEKTEACVATSSGMGAIAATVLTILKAGDHLISDECLYGCTHALFEHALTKFGIQVDFINTAIPGEVKKHMKPNTKIVYFETPANPTLKIIDMERVCKEAHSQEGVLVIADNTFCSPMITNPVDFGVDVVVHSATKYINGHTDVVAGLICGKADLLQQIRMVGIKDITGSVISPHDAWLITRGLSTLNIRMKAESENAMKVAEYLKSHPAVEKVYYPGFEDHEGHDIAKKQMRMYGSMITFILKSGFEGAKKLLDNLKLITLAVSLGGCESLIQHPASMTHAVVPKEEREAAGITDGMIRLSVGIEDADELIADFKQGLDALL
modifications: N-terminal His6 tag
notes: recombinant Trichomonas vaginalis homocysteinase from E. coli clone pAC2-1 (ATCC 98549), with 6 N-terminal histidine residues
For the molecule B1, the specific activity was 172 units/mg in series [6] (after DEAE Sepharose-FF step); 300 units/mg in series [6] (after phenyl Sepharose 6-FF step); 64 units/mg in series [6] (after pre-column procedures); 5.2 units/mg in series [6] (cell-lysate); 40 units/mg in series [6] (commercial product HYase from AntiCancer, Inc). In series [7], the “activity for homocysteine relative to cysteine and methionine” value is recorded as “at least 100 fold”. Besides, the “fraction of total hydrogen sulfide detected that is attributable to homocysteine” value in series [8] (single enzyme assay of patient samples) is at least 99%. Also, the “false contribution from cysteine to apparent homocysteine concentration” value in series [8] (single enzyme assay, product hydrogen sulfide detected) is reported as at most 1%.
